From patent publication US6881575 come the findings set out here.

The target in data set [1] is T1, Cdc25C peptide (amino acid 211 to 221 of Cdc25C; LYRSPSMPENL).
T1 chain: LYRSPSMPENL

For data set [2], the target named is T2, GST-Cdc25C (amino acid 200-256).
T2 sequence (P30307 whole entry, looked up): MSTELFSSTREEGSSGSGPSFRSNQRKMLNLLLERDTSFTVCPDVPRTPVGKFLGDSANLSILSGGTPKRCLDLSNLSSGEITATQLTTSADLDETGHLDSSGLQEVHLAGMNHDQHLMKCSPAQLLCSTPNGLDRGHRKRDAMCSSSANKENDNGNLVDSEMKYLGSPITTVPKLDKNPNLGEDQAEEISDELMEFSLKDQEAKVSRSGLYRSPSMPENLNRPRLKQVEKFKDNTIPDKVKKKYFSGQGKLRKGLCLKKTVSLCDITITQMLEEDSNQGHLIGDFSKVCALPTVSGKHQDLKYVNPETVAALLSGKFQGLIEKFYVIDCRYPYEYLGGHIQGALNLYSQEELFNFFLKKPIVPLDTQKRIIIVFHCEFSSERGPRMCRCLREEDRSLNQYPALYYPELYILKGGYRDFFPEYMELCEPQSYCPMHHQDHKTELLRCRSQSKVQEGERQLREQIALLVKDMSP

A further data set has as its target T3, TAT-S216A peptide.
T3 chain: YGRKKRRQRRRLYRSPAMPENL

Turning to LYRSPSMYENL [c-myc-tagged Chk2/HuCds1], the “in vitro phosphorylation of the Cdc25C peptide by Chk2/HuCds1” value in data set [1] was “phosphorylation of Cdc25C peptide (residues 200-256) (SEQ ID NO:1) mediated by hChk1 (SEQ ID NO:3) and Chk2/HuCds1 (SEQ ID NO:4)”.

LYRSPSMFENL [HA-tagged hChk1]: in data set [2], the “in vitro phosphorylation of GST-Cdc25C by immunoprecipitated hChk1 (32P-ATP, SDS-PAGE autoradiogram)” value is on record as “hChk1 (SEQ ID NO:3) was capable of phosphorylating a Cdc25C protein (residues 20-256) (SEQ ID NO:1) fused to GST”. Moreover, the “phosphorylation of the peptide by hChk1” value in the data set with TAT-S216A peptide and in the data set with TAT-S216 peptide was “TAT-S216 but not TAT-S216A was efficiently phosphorylated by hChk1” throughout. Further, the “in vitro phosphorylation of the Cdc25C peptide by hChk1” value in data set [1] was “phosphorylation of Cdc25C peptide (residues 200-256) (SEQ ID NO:1) mediated by hChk1 (SEQ ID NO:3) and Chk2/HuCds1 (SEQ ID NO:4)”.
